Test results from patent US20240409663A1 (CONCEPT TO MEDICINE BIOTECH, published 2024).
Substitutions are numbered along the chain they refer to.

Key:
[1] = target: T1, human GPC3 on cells (human, UniProt P51654 25-554); assay: FACS, HEPG2 cells
T1 construct: whole, on cells; over-expressed on CHOK1 cells or endogenous on HEPG2, Hep3B and Huh-7 hepatocellular carcinoma cells; the cell line is named under assay; also called GPC3-CHOK1 cells; human GPC3 over-expressed CHOK1 cells
Method: (§1) To evaluate the antigen binding property, the humanized antibodies were analyzed for their binding to human GPC3 over-expressed CHOK1 cells, HEPG2 cells, Hep3B cells and Huh-7 cells by FACS. Briefly, GPC3-CHOK1 cells, HEPG2 cells, Hep3B cells and Huh-7 cells were firstly incubated with Fc blocking reagent at 4° C. for 15 mins. Cells were washed by FACS buffer and divided to each well with 4-fold serially diluted humanized antibodies starting at 10 μg/mL at 4° C. for 60 mins. Cells were washed by FACS buffer and fixed with 2% PFA at RT for 15 mins. […] The 16 humanized antibodies were separated into two plates.

[2] = target: T1, human GPC3 on cells; assay: FACS, Hep3B cells
Method: as §1

[3] = target: T1, human GPC3 on cells; assay: FACS, Huh-7 cells
Method: as §1

[4] = target: T1, human GPC3 on cells; assay: FACS, GPC3-CHOK1 cells
Method: as §1

[5] = target: T2, human GPC3-his tag protein (human, UniProt P51654 25-559, limits assumed); assay: SPR Biacore 8K, mAb captured, affinity ranking
T2 construct: recombinant soluble antigen used as analyte in all Biacore runs; also called recombinant GPC3 protein; rhGPC3-His; not shown: His tag
Method: To evaluate antigen binding activity, the chimeric antibody's affinity was measured by Biacore 8K. A serial dilution of human GPC3-his tag protein was injected over captured chimeric antibody 52H5D3B8-6 #-VH+VL for 3 mins at a flow rate of 30 μl/min. The antigen was allowed to dissociate for 720 s. Among the multi detection doses, two concentrations with most close affinity to the chimeric antibody's affinity were chosen for the 16 humanized antibodies' affinity detection.

[6] = target: T1, human GPC3 on cells; assay: FACS, Huh-7 cells; remark: listed apart in the source
Method: as §1, with “CHOK1” for “CHOK1 cells, HEPG2 cells, Hep3B”, “GPC3-CHOK1” for “GPC3-CHOK1 cells, HEPG2 cells, Hep3B”, “As different plates might affect the EC50 of 52H5D3B8-VH+VL, the 12” for “The 16”

[7] = target: T1, human GPC3 on cells; assay: FACS, GPC3-CHOK1 cells; remark: listed apart in the source
Method: as §1, with “CHOK1” for “CHOK1 cells, HEPG2 cells, Hep3B”, “GPC3-CHOK1” for “GPC3-CHOK1 cells, HEPG2 cells, Hep3B”, “As different plates might affect the EC50 of 52H5D3B8-VH+VL, the 12” for “The 16”

[8] = target: T2, human GPC3-his tag protein; assay: SPR Biacore 8K, mAb captured, affinity ranking; remark: listed apart in the source
Method: To evaluate antigen binding activity, the chimeric antibody's affinity was measured by Biacore 8K. Two concentrations with most close affinity to the chimeric antibody's affinity were chosen for the 12 humanized antibodies' affinity detection. Human GPC3-his tag protein was injected over captured antibody for 3 mins at a flow rate of 30 μl/min. The antigen was allowed to dissociate for 720 s.

[9] = target: T2, human GPC3-his tag protein; assay: SPR Biacore, mAb captured on CM5, GPC3-his dilution series (full kinetics)
Method: The binding of the humanized antibodies to recombinant GPC3 protein (human GPC3-his tag) was tested by Biacore using a capture method. 52H5D3B8-6 #-V+VL, 52H5D3B8-6 #-VH1+VL1, 52H5D3B8-6 #-VH1+VL3, 52H5D3B8-6 #-V1+VL4, 52H5D3B8-6 #-VH2+VL4, 52H5D3B8-6 #-VH3+VL1, 52H5D3B8-6 #-VH3+VL3 mAbs were captured using CM5 sensor chip. A serial dilution of human GPC3-his tag protein was injected over captured antibody for 2 mins at a flow rate of […]. The antigen was allowed to dissociate for 360 s. All the experiments were carried out on a Biacore T200.

B1: 52H5D3B8-6#-VH2+VL1 (antibody, V domains shown)
VH: QVQLVQSGAEVKKPGASVKVSCKASGYTFTDYEMHWVRQAPGQGLEWIGAIHPGSGGTAYNQKFKGRVTMTADTSTSTVYMELSSLRSEDTAVYYCTRYYSYAYWGQGTLVTVSS
VL: DIVMTQTPLSLSVTPGQPASISCRSSQSLVHSNGNTYLQWYLQKPGQSPQLLIYKVSNRFSGVPDRFSGSGSGTDFTLKISRVEAEDVGVYYCFQSIHVPYTFGGGTKLEIK
notes: humanized
- EC50 [1]: 0.0479 µg/mL
- EC50 [2]: 0.0824 µg/mL
- EC50 [3]: 0.0427 µg/mL
- EC50 [4]: 0.0384 µg/mL
- Kd [5]: 1.15 nM
- koff [5]: 0.000742 s⁻¹
- kon [5]: 646000 M⁻¹ s⁻¹

B2: Hu 52H5D3B8-2 (antibody, V domains shown)
VH: B1 VH with Q1E, I48M, A72R, T76I, V79A, S85R, E89D, T97A, Y99F
VL: B1 VL with I2V, Y92F, F94S, L109V
notes: humanized 52H5D3B8; also called 52H5D3B8 VH0 + VL1
- EC50 [6]: 0.0195 µg/mL
- EC50 [7]: 0.0338 µg/mL
- Kd [8]: 5.71 nM
- koff [8]: 0.00163 s⁻¹
- kon [8]: 285000 M⁻¹ s⁻¹

B3: 52H5D3B8-6#-VH3+VL2 (antibody, V domains shown)
VH: B1 VH with S25L, R38K, M70L
VL: B1 VL with Y92F
notes: humanized
- EC50 [1]: 0.0444 µg/mL
- EC50 [2]: 0.0786 µg/mL
- EC50 [3]: 0.0411 µg/mL
- EC50 [4]: 0.0429 µg/mL
- Kd [5]: 0.883 nM
- koff [5]: 0.000587 s⁻¹
- kon [5]: 664000 M⁻¹ s⁻¹

B4: Hu 52H5D3B8-1 (antibody, V domains shown)
VH: B1 VH with Q1E, I48M, A72R, T76I, V79A, S85R, E89D, T97A, Y99F
VL: B1 VL with I2V, F94S, L109V
notes: humanized 52H5D3B8; also called 52H5D3B8 VH0 + VL0
- EC50 [6]: 0.0243 µg/mL
- EC50 [7]: 0.0404 µg/mL
- Kd [8]: 6.33 nM
- koff [8]: 0.00161 s⁻¹
- kon [8]: 255000 M⁻¹ s⁻¹

B5: 52H5D3B8-6#-VH1+VL3 (antibody, V domains shown)
VH: B1 VH with I48M, A72R, T97A
VL: B1 VL with Q50K
notes: humanized
- EC50 [1]: 0.0387 µg/mL
- EC50 [2]: 0.0529 µg/mL
- EC50 [3]: 0.0265 µg/mL
- EC50 [4]: 0.0341 µg/mL
- Kd [5]: 1.74 nM
- koff [5]: 0.000975 s⁻¹
- kon [5]: 561000 M⁻¹ s⁻¹
- Kd [9]: 1.76 nM
- koff [9]: 0.000872 s⁻¹
- kon [9]: 494000 M⁻¹ s⁻¹

B6: 52H5D3B8-6#-VH3+VL1 (antibody, V domains shown)
VH: B1 VH with S25L, R38K, M70L
VL: B1 VL
notes: humanized
- EC50 [1]: 0.0471 µg/mL
- EC50 [2]: 0.0738 µg/mL
- EC50 [3]: 0.0413 µg/mL
- EC50 [4]: 0.0373 µg/mL
- Kd [5]: 0.838 nM
- koff [5]: 0.000578 s⁻¹
- kon [5]: 689000 M⁻¹ s⁻¹
- Kd [9]: 1 nM
- koff [9]: 0.000579 s⁻¹
- kon [9]: 579000 M⁻¹ s⁻¹

B7: 52H5D3B8-6#-VH1+VL2 (antibody, V domains shown)
VH: B1 VH with I48M, A72R, T97A
VL: B1 VL with Y92F
notes: humanized
- EC50 [1]: 0.043 µg/mL
- EC50 [2]: 0.0615 µg/mL
- EC50 [3]: 0.0326 µg/mL
- EC50 [4]: 0.0388 µg/mL
- Kd [5]: 2 nM
- koff [5]: 0.00113 s⁻¹
- kon [5]: 564000 M⁻¹ s⁻¹

B8: 52H5D3B8-6#-VH2+VL4 (antibody, V domains shown)
VH: B1 VH
VL: B1 VL with Q50K, Y92F
notes: humanized
- EC50 [1]: 0.0438 µg/mL
- EC50 [2]: 0.0632 µg/mL
- EC50 [3]: 0.0381 µg/mL
- EC50 [4]: 0.041 µg/mL
- Kd [5]: 0.994 nM
- koff [5]: 0.000645 s⁻¹
- kon [5]: 648000 M⁻¹ s⁻¹
- Kd [9]: 1.12 nM
- koff [9]: 0.000669 s⁻¹
- kon [9]: 599000 M⁻¹ s⁻¹

B9: Hu 52H5D3B8-3 (antibody, V domains shown)
VH: B1 VH with Q1E, I48M, A72R, T76I, V79A, S85R, E89D, Y99F
VL: B1 VL with I2V, F94S, L109V
notes: humanized 52H5D3B8; also called 52H5D3B8 VH1 + VL0
- EC50 [6]: 0.0213 µg/mL
- EC50 [7]: 0.0387 µg/mL
- Kd [8]: 4.34 nM
- koff [8]: 0.00176 s⁻¹
- kon [8]: 405000 M⁻¹ s⁻¹

B10: Hu 52H5D3B8-4 (antibody, V domains shown)
VH: B1 VH with Q1E, I48M, A72R, T76I, V79A, S85R, E89D, Y99F
VL: B1 VL with I2V, Y92F, F94S, L109V
notes: humanized 52H5D3B8; also called 52H5D3B8 VH1 + VL1
- EC50 [6]: 0.0196 µg/mL
- EC50 [7]: 0.0324 µg/mL
- Kd [8]: 4.6 nM
- koff [8]: 0.00164 s⁻¹
- kon [8]: 357000 M⁻¹ s⁻¹

B11: Hu 52H5D3B8-6 (antibody, V domains shown)
VH: B1 VH with Q1E, I48M, T76I, V79A, S85R, E89D, Y99F
VL: B1 VL with I2V, Y92F, F94S, L109V
notes: humanized 52H5D3B8; also called 52H5D3B8 VH2 + VL1
- EC50 [6]: 0.0295 µg/mL
- EC50 [7]: 0.0509 µg/mL
- Kd [8]: 2.94 nM
- koff [8]: 0.000961 s⁻¹
- kon [8]: 327000 M⁻¹ s⁻¹

B12: 52H5D3B8-6#-VH2+VL2 (antibody, V domains shown)
VH: B1 VH
VL: B1 VL with Y92F
notes: humanized
- EC50 [1]: 0.0481 µg/mL
- EC50 [2]: 0.0846 µg/mL
- EC50 [3]: 0.0434 µg/mL
- EC50 [4]: 0.043 µg/mL
- Kd [5]: 1.15 nM
- koff [5]: 0.000749 s⁻¹
- kon [5]: 651000 M⁻¹ s⁻¹

B13: 52H5D3B8-6#-VH1+VL4 (antibody, V domains shown)
VH: B1 VH with I48M, A72R, T97A
VL: B1 VL with Q50K, Y92F
notes: humanized
- EC50 [1]: 0.0391 µg/mL
- EC50 [2]: 0.0545 µg/mL
- EC50 [3]: 0.0268 µg/mL
- EC50 [4]: 0.0308 µg/mL
- Kd [5]: 1.74 nM
- koff [5]: 0.000947 s⁻¹
- kon [5]: 546000 M⁻¹ s⁻¹
- Kd [9]: 1.85 nM
- koff [9]: 0.000984 s⁻¹
- kon [9]: 532000 M⁻¹ s⁻¹

B14: Hu 52H5D3B8-5 (antibody, V domains shown)
VH: B1 VH with Q1E, I48M, T76I, V79A, S85R, E89D, Y99F
VL: B1 VL with I2V, F94S, L109V
notes: humanized 52H5D3B8; also called 52H5D3B8 VH2 + VL0
- EC50 [6]: 0.0402 µg/mL
- EC50 [7]: 0.0544 µg/mL
- Kd [8]: 2.87 nM
- koff [8]: 0.000916 s⁻¹
- kon [8]: 319000 M⁻¹ s⁻¹

B15: Hu 52H5D3B8-9 (antibody, V domains shown)
VH: B1 VH with Q1E, M70L, T74K, T76I, V79A, S85R, E89D, Y99F
VL: B1 VL with I2V, F94S, L109V
notes: humanized 52H5D3B8; also called 52H5D3B8 VH4 + VL0
- EC50 [6]: 0.0348 µg/mL
- EC50 [7]: 0.0572 µg/mL
- Kd [8]: 4.18 nM
- koff [8]: 0.00102 s⁻¹
- kon [8]: 244000 M⁻¹ s⁻¹
